Experimental data published in patent US20150260724A1.

Target: endogenous Fc epsilon receptor I (the IgE receptor) of RBL-2H3 cells (rat) (UniProt P12371)
Assay: cell-based or functional assay

Sequence of UniProt P12371 (P12371 24-245): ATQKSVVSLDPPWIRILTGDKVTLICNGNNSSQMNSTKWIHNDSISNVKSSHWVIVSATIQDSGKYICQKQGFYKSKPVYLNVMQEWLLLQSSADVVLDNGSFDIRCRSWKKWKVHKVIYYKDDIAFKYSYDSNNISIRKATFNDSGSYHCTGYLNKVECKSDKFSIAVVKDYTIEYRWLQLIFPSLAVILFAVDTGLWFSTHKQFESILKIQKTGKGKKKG

FLUORESCENCE (IgE + TNP-BSA, specific exocytosis); 1B7-HEXB clone, HEXB substrate 4MU-NGlc, 30 min: 28600 | FLUORESCENCE (IgE + TNP-BSA, specific exocytosis); 1C4-HEXB clone, HEXB substrate 4MU-NGlc, 30 min: 39200 | FLUORESCENCE (IgE + TNP-BSA, specific exocytosis); 1F10-HEXB clone, HEXB substrate 4MU-NGlc, 30 min: 17400 | FLUORESCENCE (IgE + TNP-BSA, specific exocytosis); 2D1-SEAP clone, phosphatase substrate fluorescein diphosphate, 30 min: 62900 | FLUORESCENCE (IgE + TNP-BSA, specific exocytosis); RBL2H3-HEXB (whole stable population), HEXB substrate 4MU-NGlc, 30 min: 14100 | FLUORESCENCE (IgE + TNP-BSA, specific exocytosis); RBL2H3 cells, HEXB substrate 4MU-NGlc, 30 min: 6420 | FLUORESCENCE (IgE + TNP-BSA, specific exocytosis); RBL2H3 cells, phosphatase substrate fluorescein diphosphate, 30 min: 29900 | LU… (IgE + TNP-BSA, specific exocytosis); supernatant of 12.500 GZB-GLuc cells, coelenterazine: 997 | LU… (IgE + TNP-BSA, specific exocytosis); supernatant of 25.000 GZB-GLuc cells, coelenterazine: 3780 | LU… (IgE + TNP-BSA, specific exocytosis); supernatant of 50.000 GZB-GLuc cells, coelenterazine: 4710 | LU… (IgE + TNP-BSA, specific exocytosis); supernatant of 100.000 GZB-GLuc cells, coelenterazine: 6280
Substance: mouse IgE monoclonal antibody against trinitrophenyl hapten, purified from IgELb4 hybridoma (ATCC TIB-141)
